± gives the uncertainty stated by the source.

The data set is described as follows: self-splicing fitness, log relative to wild type (ln ratio); higher = more splicing; Tetrahymena group I intron in knt gene, E. coli kanamycin selection, DiMSum; sequences stand for … in CUCUCU…GGAGGGAAAAGUUAUCAGGCAUGCACCUGGUAGCUAGUCUUUAAACCAAUAGAUUGCAUCGGUUUAAAAGGCAAGACCGUCAAAUUGCGGGAAAGGGGUCAACAGCCGUUCAGUACCAAGUCUCAGGGGAAACUUUGAGAUGGCCUUGCAAAGGGUAUGGUAAUAAGCUGACGGACAUGGUCCUAACCACGCAGCCAAGUCCUAAGUCAACAGAUCUUCUGUUGAUAUGGAUGCAGUUCACAGACUAAAUGUCGGUCGGGGAAGAUGUAUUCUUCUCAUAAGAUAUAGUCGGACCUCUCCUUAAUGGGAGCUAGCGGAUGAAGUGAUGCAACACUGGAGCCGCUGGGAACUAAUUUGUAUGCGAAAGUAUAUUGAUUAGUUUUGGAGUACUCGUGGUCG
The gist of the method:
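DiMSum derived fitness as the error-weighted combination of fold changes across replicates, kanamycin versus no kanamycin, normalised to wild type. E. coli BL21(DE3) held the library, which randomised all eight P1ex-region intron nucleotides within the knt kanamycin-resistance gene on pET-22b(+). Six replicate transformations grew overnight at 37°C or 30°C on LB agar with or without 25 μg/mL kanamycin, also containing 100 μg/mL carbenicillin, 50 μM IPTG and 0.2% rhamnose, and pooled colonies were amplicon-sequenced on an Illumina HiSeq 2500.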

Consider AACGAGCAAUAUUACGUAGA, for which the “self-splicing fitness (ln)” value runs as follows: (30 °C) -2.99 ± 0.12; (37 °C) -2.43 ± 0.17.
AACGAGCAAUAUUACGUCUC: the “self-splicing fitness (ln)” value (30 °C) was -3.67 ± 0.29 and the “self-splicing fitness (ln)” value (37 °C) is -3.03 ± 0.27.
The corresponding values for AACGAGCAAUAUUACGUGUA are -2.55 ± 0.11 and -3.2 ± 0.14.
As for AACGAGCAAUAUUACGUUAG, the “self-splicing fitness (ln)” value is -3.71 ± 0.33 (30 °C) and -3.11 ± 0.3 (37 °C).
Consider AACGAGCAAUAUUACGUUUU, for which the “self-splicing fitness (ln)” value reads like this: (30 °C) -3.9 ± 0.14; (37 °C) -2.79 ± 0.14.
As for AACUAGCAAUAUUACGAAUU, the “self-splicing fitness (ln)” value reads like this: (30 °C) -1.49 ± 0.076; (37 °C) -0.396 ± 0.097.
Take AACUAGCAAUAUUACGACCA: the “self-splicing fitness (ln)” value is -0.23 ± 0.079 (30 °C) and 0.118 ± 0.1 (37 °C).
Take AACUAGCAAUAUUACGACCG: the “self-splicing fitness (ln)” value by setting is: (30 °C) -0.914 ± 0.12; (37 °C) 0.134 ± 0.15.
Turning to AACUAGCAAUAUUACGACGG, the “self-splicing fitness (ln)” value (30 °C) was -2.21 ± 0.14 and the “self-splicing fitness (ln)” value (37 °C) was -0.86 ± 0.21.
In the case of AACUAGCAAUAUUACGACUU, the “self-splicing fitness (ln)” value (30 °C) was -0.0929 ± 0.069 and the “self-splicing fitness (ln)” value (37 °C) came out at 0.236 ± 0.09.
For AACUAGCAAUAUUACGAUAG, in that order: -3.19 ± 0.19 and -1.77 ± 0.13.
Turning to AACUAGCAAUAUUACGCACC, the “self-splicing fitness (ln)” value (30 °C) was found to be 0.625 ± 0.17 and the “self-splicing fitness (ln)” value (37 °C) was -1.48 ± 0.25.
For AACUAGCAAUAUUACGCAUG, in that order: -1.25 ± 0.083 and -0.11 ± 0.086.
Turning to AACUAGCAAUAUUACGCCCG, the “self-splicing fitness (ln)” value is -1.11 ± 0.18 (30 °C) and -0.346 ± 0.23 (37 °C).
As to AACUAGCAAUAUUACGCCGU, the “self-splicing fitness (ln)” value is -1.62 ± 0.11 (30 °C) and -0.221 ± 0.14 (37 °C).
Regarding AACUAGCAAUAUUACGCCUA, the “self-splicing fitness (ln)” value was -0.593 ± 0.11 (30 °C) and -0.206 ± 0.11 (37 °C).
Take AACUAGCAAUAUUACGCGCC: the “self-splicing fitness (ln)” value was -1.34 ± 0.12 (30 °C) and -0.314 ± 0.12 (37 °C).
The corresponding values for AACUAGCAAUAUUACGCGGC are -3.01 ± 0.19 and -3.27 ± 0.22.
The corresponding values for AACUAGCAAUAUUACGCUGG are -3.28 ± 0.4 and -2.34 ± 0.22.
Turning to AACUAGCAAUAUUACGCUUC, the “self-splicing fitness (ln)” value reads like this: (30 °C) -3.74 ± 0.33; (37 °C) -1.68 ± 0.2.
As for AACUAGCAAUAUUACGGAUC, the “self-splicing fitness (ln)” value was -1.78 ± 0.17 (30 °C) and -1.37 ± 0.12 (37 °C).
Take AACUAGCAAUAUUACGGAUU: the “self-splicing fitness (ln)” value (30 °C) is -1.16 ± 0.088 and the “self-splicing fitness (ln)” value (37 °C) was -0.792 ± 0.1.
The corresponding values for AACUAGCAAUAUUACGGCCG are -0.725 ± 0.1 and 0.273 ± 0.13.
Regarding AACUAGCAAUAUUACGGGCA, the “self-splicing fitness (ln)” value (30 °C) is -0.872 ± 0.079 and the “self-splicing fitness (ln)” value (37 °C) was -0.13 ± 0.088.
As for AACUAGCAAUAUUACGGUCU, the “self-splicing fitness (ln)” value was -0.472 ± 0.055 (30 °C) and 0.465 ± 0.07 (37 °C).
On to AACUAGCAAUAUUACGGUUU, for which the “self-splicing fitness (ln)” value was -3.29 ± 0.12 (30 °C) and -2.62 ± 0.17 (37 °C).
On to AACUAGCAAUAUUACGUAGA, for which the “self-splicing fitness (ln)” value was -1.76 ± 0.079 (30 °C) and -0.779 ± 0.11 (37 °C).
The corresponding values for AACUAGCAAUAUUACGUCUU are 0.0966 ± 0.067 and 0.781 ± 0.083.
Consider AACUAGCAAUAUUACGUUAC, for which the “self-splicing fitness (ln)” value is -1.79 ± 0.13 (30 °C) and -1.96 ± 0.2 (37 °C).
The corresponding values for AACUAGCAAUAUUACGUUAG are -3.12 ± 0.17 and -3.33 ± 0.26.
For the sequence AACUAGCAAUAUUACGUUCA, the “self-splicing fitness (ln)” value was -1.3 ± 0.1 (30 °C) and -0.728 ± 0.12 (37 °C).
AACUAGCAAUAUUACGUUCU: the “self-splicing fitness (ln)” value was -1.55 ± 0.061 (30 °C) and -1.14 ± 0.079 (37 °C).
Regarding AAGAAGCAAUAUUACGAACG, the “self-splicing fitness (ln)” value runs as follows: (30 °C) -0.96 ± 0.11; (37 °C) -0.286 ± 0.14.
The corresponding values for AAGAAGCAAUAUUACGACAG are -2.2 ± 0.11 and -0.487 ± 0.1.
Turning to AAGAAGCAAUAUUACGACUU, the “self-splicing fitness (ln)” value (30 °C) is -0.363 ± 0.061 and the “self-splicing fitness (ln)” value (37 °C) is -0.819 ± 0.078.
Take AAGAAGCAAUAUUACGAGUA: the “self-splicing fitness (ln)” value by setting is: (30 °C) -0.78 ± 0.26; (37 °C) -1.44 ± 0.21.
For AAGAAGCAAUAUUACGCAGA, in that order: -2.35 ± 0.17 and -1.5 ± 0.11.
AAGAAGCAAUAUUACGCCAU: the “self-splicing fitness (ln)” value is -2.82 ± 0.24 (30 °C) and -2.62 ± 0.27 (37 °C).
Consider AAGAAGCAAUAUUACGCCCA, for which the “self-splicing fitness (ln)” value is -0.613 ± 0.21 (30 °C) and -1.85 ± 0.44 (37 °C).
The corresponding values for AAGAAGCAAUAUUACGCCGA are -0.879 ± 0.12 and -0.757 ± 0.15.
Regarding AAGAAGCAAUAUUACGCCUA, the “self-splicing fitness (ln)” value is, setting by setting: (30 °C) -0.339 ± 0.12; (37 °C) -0.209 ± 0.13.
With AAGAAGCAAUAUUACGCGAC, the “self-splicing fitness (ln)” value is -3.25 ± 0.24 (30 °C) and -1.53 ± 0.13 (37 °C).
As for AAGAAGCAAUAUUACGCGAG, the “self-splicing fitness (ln)” value was -0.936 ± 0.081 (30 °C) and -0.561 ± 0.1 (37 °C).
On to AAGAAGCAAUAUUACGCGUA, for which the “self-splicing fitness (ln)” value is -1.39 ± 0.099 (30 °C) and -0.914 ± 0.082 (37 °C).
Regarding AAGAAGCAAUAUUACGGAGC, the “self-splicing fitness (ln)” value by setting is: (30 °C) -3.35 ± 0.24; (37 °C) -2.66 ± 0.23.
On to AAGAAGCAAUAUUACGGAUU, for which the “self-splicing fitness (ln)” value is -1.37 ± 0.097 (30 °C) and -0.421 ± 0.12 (37 °C).
For AAGAAGCAAUAUUACGGGUA, in that order: -2.35 ± 0.16 and -0.422 ± 0.12.
Regarding AAGAAGCAAUAUUACGGGUU, the “self-splicing fitness (ln)” value (30 °C) is -1.57 ± 0.15 and the “self-splicing fitness (ln)” value (37 °C) is -1.41 ± 0.14.
Regarding AAGAAGCAAUAUUACGUAUU, the “self-splicing fitness (ln)” value was -2.28 ± 0.16 (30 °C) and -1.43 ± 0.12 (37 °C).
On to AAGAAGCAAUAUUACGUCCG, for which the “self-splicing fitness (ln)” value is, setting by setting: (30 °C) -0.7 ± 0.073; (37 °C) -0.283 ± 0.099.
The corresponding values for AAGAAGCAAUAUUACGUCCU are -0.0351 ± 0.12 and 0.363 ± 0.16.
For the sequence AAGAAGCAAUAUUACGUCGU, the “self-splicing fitness (ln)” value by setting is: (30 °C) -1.31 ± 0.058; (37 °C) -0.567 ± 0.073.
AAGAAGCAAUAUUACGUCUC: the “self-splicing fitness (ln)” value is, setting by setting: (30 °C) -2.04 ± 0.12; (37 °C) -1.69 ± 0.16.
As to AAGCAGCAAUAUUACGAACA, the “self-splicing fitness (ln)” value reads like this: (30 °C) -1.56 ± 0.13; (37 °C) -0.603 ± 0.13.
For AAGCAGCAAUAUUACGAACG, the “self-splicing fitness (ln)” value (30 °C) is -2.31 ± 0.094 and the “self-splicing fitness (ln)” value (37 °C) is -0.98 ± 0.11.
Take AAGCAGCAAUAUUACGAACU: the “self-splicing fitness (ln)” value is -0.292 ± 0.07 (30 °C) and -1 ± 0.069 (37 °C).
AAGCAGCAAUAUUACGACCA: the “self-splicing fitness (ln)” value was -0.635 ± 0.12 (30 °C) and -0.265 ± 0.14 (37 °C).
The corresponding values for AAGCAGCAAUAUUACGAGAG are -4.01 ± 0.29 and -2.49 ± 0.25.
As to AAGCAGCAAUAUUACGCACC, the “self-splicing fitness (ln)” value is, setting by setting: (30 °C) -0.735 ± 0.085; (37 °C) 0.0945 ± 0.09.
The corresponding values for AAGCAGCAAUAUUACGCAUA are -2.01 ± 0.11 and -0.237 ± 0.1.
For AAGCAGCAAUAUUACGCCCA, in that order: -0.461 ± 0.15 and 0.244 ± 0.23.
In the case of AAGCAGCAAUAUUACGCUGU, for the setting “37 °C”, the “self-splicing fitness (ln)” value was -2.7 ± 0.23.
AAGCAGCAAUAUUACGGACC: the “self-splicing fitness (ln)” value (30 °C) was -1.42 ± 0.14 and the “self-splicing fitness (ln)” value (37 °C) is -0.369 ± 0.17.
For AAGCAGCAAUAUUACGGAUA, in that order: -2.22 ± 0.2 and -1.72 ± 0.15.
The corresponding values for AAGCAGCAAUAUUACGGCUC are -1.67 ± 0.093 and -0.463 ± 0.14.
Consider AAGCAGCAAUAUUACGGGCA, for which the “self-splicing fitness (ln)” value by setting is: (30 °C) -0.552 ± 0.072; (37 °C) -0.789 ± 0.077.
As for AAGCAGCAAUAUUACGGGCC, the “self-splicing fitness (ln)” value is, setting by setting: (30 °C) -1.76 ± 0.15; (37 °C) -1.53 ± 0.15.
The corresponding values for AAGCAGCAAUAUUACGGGGA are -3.53 ± 0.33 and -1.11 ± 0.13.
As for AAGCAGCAAUAUUACGGUAC, the “self-splicing fitness (ln)” value was -3.08 ± 0.23 (30 °C) and -2.49 ± 0.22 (37 °C).
Turning to AAGCAGCAAUAUUACGUACG, the “self-splicing fitness (ln)” value (30 °C) is -2.18 ± 0.12 and the “self-splicing fitness (ln)” value (37 °C) is -0.645 ± 0.13.
With AAGCAGCAAUAUUACGUACU, the “self-splicing fitness (ln)” value was determined as 0.254 ± 0.1 (30 °C) and 0.172 ± 0.11 (37 °C).
For AAGCAGCAAUAUUACGUAGU, in that order: -2.61 ± 0.1 and -2.47 ± 0.14.
Turning to AAGCAGCAAUAUUACGUAUU, the “self-splicing fitness (ln)” value reads like this: (30 °C) -2.12 ± 0.058; (37 °C) -1.43 ± 0.082.
On to AAGCAGCAAUAUUACGUCUA, for which the “self-splicing fitness (ln)” value was -1 ± 0.053 (30 °C) and -1.53 ± 0.062 (37 °C).
As for AAGCAGCAAUAUUACGUUCU, the “self-splicing fitness (ln)” value is -0.454 ± 0.056 (30 °C) and 0.0556 ± 0.076 (37 °C).

For the origin of these results see the supplement of paper PMC7877785.
